# Data: the DeepSol protein solubility set
# Test: soluble on expression in E. coli; label from the status in PepcDB or PDB records
row,Sequence,soluble on expression in E. coli
1,MFQIGEHNMILIYKLTLTKLTEDELKKDFATIPSWATHLDLSNNRLGETSNEELIRVFAKIPGWISHIKLRFNNLGQKNGKDLAKAFAKIPISVTTLDLGSNQLGKKSGEELANAFAGIPTSVTRLILSQNELYKRTGGELATAFAKIPSSVTHLVLVNNGLGEKNGKELATAFANIPSSVTTLDLALNDLSKIKSTELAVIFTKIPTSVTQLDLSHNNLNKKSGKNLAKIFANIPTSVTNLNLSCNELGKKSGKGLAAAFAKIPTSVTDLNIEDNDLDNRTGKELAMAFAHIPAFVNTLRLGDNNLGNKSGEELAEIFAKIPLSVTSLDLRYNELGKRNGKELAIAFAKIPSSVTNLNLKFNHLGKITGEELAMAFANIPTNVDSLVLANNELGAKSGEELAKIFSKIPASITSLNMGNDWFAVIEKLSQQKMVLSTITHVVIDYSSAQEHSAKLKLLATVFPNLNKVTFMDIHGNNALAGQNPIEEAKWLKLCGIKNSVPSLLSQALFFVAKNKEHRSIQDYPSLLPKELTDSISSLLKC,not soluble
2,MFQKILIANRGEIAVRIMKTCQKLGIRTVAIYSEADENALHVKMANEAYLVGGPRVQESYLNLEKIIEIAKKTNAEAIHPGYGLLSENPSFPVRCKEEGIVFIGPSEEIITKMGSKIESRIAMQAADVPVVPGITTNIETAEEAIEIAKQIGYPLMLKASAGGGGIGMQLMETEQTLTKAFESNKTRAQNFFGNGEMYLERYIADAHHIEIQLLADTHGNTVYLWERECSVQRRNQKVIEEAPSPFLDEGTRKAMGEIAVQAAKALGYTNAGTVEFLVDEQKNFYFLEMNTRLQVEHPVTEEITGLDLVEQQLLIAYGEKLSFTQDDIKRSGHAIEARIYAEDPKTFFPSPGKITDLTLPTNVRIDHFLENQVTITPFYDPMIAKVIAHGETREEAISKLHDALEELKVEGIKTNTPMLLQVLEDDVFKSGIYTTGFVTKQLVKK,not soluble
3,MFQPQDDQDACYDNSIHYTDSLLGQVFELLKDRRASVMYFADHGLERDPTKKNVYFHGGREASQQAYHVPMFIWYSPVLGDGVDRTTENNIFSTAYNNYLINAWMGVTKPEQPQTLEEVIAHYKGDSRVVDANHDVFDYVMLRKEFTEDKQGNPTPEGQG,not soluble
4,MFQPVTQKRLTNVSVVRMRKGGKRFEIACYPNMVMAYREGHVRDLDEVIQVEDVFENVSKGKLAANADLERCFGTRDRHAVLLQILLHGDLQVSDRERQYQSTRKLHEIASVVAAKTISRETKKPLPVGLIEKALREIHFAVQPNRPAKAQALEVIPLLRAQSGLDLERARLRLRIHVPSQRDAKAVKARLEPLQQGETDGTHSSSRSDSVRMKDGSAAVESESEEWLPGGALLWTVQADPGAFREIEEIVQRETNQQGIVEVASLRVLDDEDESILS,not soluble
5,MFREESRSVPVEEGEVYDVTIQDIARQGDGIARIEGFVIFVPGTKVGDEVRIKVERVLPKFAFASVVELEHHHHHH,not soluble
6,MFRRKLTALDYHNPAGFNCKDETEFRNFIVWLEDQKIRHYKIEDRGNLRNIHSSDWPKFFEKYLRDVNCPFKIQDRQEAIDWLLGLAVRLEYGDNAEKYKDLVPDNSKTADNATKNAEPLINLDVNNPDFKAGVMALANLLQIQRHDDYLVMLKAIRILVQERLTQDAVAKANQTKEGLPVALDKHILGFDTGDAVLNEAAQILRLLHIEELRELQTKINEAIVAVQAIIADPKTDHRLGKVGRLEHHHHHH,soluble
7,MFRVGILTVSDKGFRGERQDTTHLAIREVLAGGPFEVAAYELVPDEPPMIKKVLRLWADREGLDLILTNGGTGLAPRDRTPEATRELLDREVPGLAELMRLVGLRKTPMAALSRGVAGVRGRTLILNLPGSPKGARESLEAVLPVLPHALSLVTGKPWKEGHHE,soluble
8,MFSISLLSCLFLGTVPALAQTGGERRLSPEKSEIWGPGLKAHVVLPVRYFYIRAVDTSGEQFTSSPGEKVFQVKISAPDEQFTRVGVQVLDRKDGSFIVRYRMYASYRNLKIEVKHHGQHVAESPYVLRGPVYHENCDCPLEDSAAWLREMNCSETISQIQKDLAHFPTVDPEKIAAEIPKRFGQRQSLCHYTLKDNKVYIKTHGEHVGFRIFMDAILLSLTRKVRMPDVEFFVNLGDWPLEKKKSNSNIQPIFSWCGSTESRDIVMPTYDLTDSVLETMGRVSLDMMSVQANTGPPWESKNSTAVWRGRDSRKERLELVKLSRKHPELIDAAFTNFFFFKHDESLYGPIVKHISFFDFFKHKYQINIDGTVAAYRLPYLLVGDSVVLKQDSIYYEHFYNELQPWKHYIPVKSNLSDLLEKLKWAKEHDAEAKKIAKAGQEFARNNLMGDDIFCYYFKLFQGYANLQVSEPQIREGMKRVEPQSEDDLFPCTCHRRKAKDEL,soluble
9,MFSLRDAKCGQTVKVVKLHGTGALKRRIMDMGITRGCEIYIRKVAPLGDPIQINVRGYELSLRKSAAEMIEVE,not soluble
10,MFSPTFKSFLLLCLLVVNSWAQDPTTTATSTTTVPSTSTVTTTTVASTSSGSTTASTAAGGSTSTTAAGGSTASTAAGGSTSTTAAGGSTASTAAGGPTGSTAAGGSTASTAAGGSTASTAAGGSTASTVAGATSVVPSSPAPPTQPPVNNGCELGWKFFNRPSGGWCIKVFPGYFALKEHAENACQANGAATLTGLQNKAEALFIQCEYRNSPYFSCFSCFQNSVLGYCSSTVEVLYEYSSMLSEMSAPSGSVWIGIHRTPACNRKPLSAQCNKNTAFRWTDKSATGVDGFVFQRGQPDNGGRALNQNCALLLASSKPFIDAGGRYYAAQMEDVHCNATFVPGNMARKTSGYACGKPNKCQPGWKFFDRQSGGWCMKVFTGFHAAKVDAEAACKDVGATLSGLENKEEAIFIQNALLARISQASGSVWIGIQRKAECLGKGLTASGTPTTSFEWTDNSASGVGGMVFQAGQPDNGVTALNQNCALLLASSQPYIDARGRFYAATMEDVPCVANFVASNEARRTRGYVCGKPL,not soluble
11,MFTHLDENQQPRMVDISQKVAGDRRAVAQCIVQLPKAIKDYLTGQEIFLKKGPVIQTAIIAGTMAVKKTADLIPFCHTLPIHGCKFDINIVYQKRDYLEIFLQCAVNTNYKTGVEMEALCGVSVAALTIYDMCKSISSEIIIKNTKLIEKTGGKADVSQTPLYGLVLTGGKSRRMGKDKALINYQGQPHGQYIYDLLAKYCEQVFLSARPSQWQGTPLENLPTLVDRGESVGPMSGILTALQSYPGVNWLIIACDLAYINSTMVEKLIAQARQDLVATCYENADQGFPEALCGFYTPLALQLFTKAQNIGLHCPVKILQMADCQLIKPDNLFDIANINSPEDYGQINLEHHHHHH,not soluble
12,MFTHVESFKSAFLEKLETMYGKSFKDSTTRDQYNTLGYMVREYMNSQWIATNESYRSGERKQMYYLSIEFLLGRLLGSNILNLGIRDVCEQGLSELGISLQQLEEVEADAGLGNGGLGRLAACFLDSLASLDLPGHGCGIRYKHGLFDQKIVDGYQVEFPEQWLLHENVWEVRRHDQAVEVSYFGNVEPLYIDGRLEFRHTNAEVIMAVPYDVPVVGYETSTVNTLRLWNAEPVPFPQNCKDILKYKRETEAVSEFLYPDDTHDEGKILRLKQQYFLVSASLQNIVRLHRERYGDLRQLHEKIAIHINDTHPVLAIPELMRILLDEEKLAWEEAWHITTQTISYTNHTTLSEALEKWPIHIFKPLLPRIYMIIEEINERFCHELWERYPYEWHRIEEMAIIAHDLVKMAHLAIVGSHSVNGVAKIHTEILKQREMRLFYEFYPDKFNNKTNGIAHRRWLMKANPQLTNLISEAIGTEWKKEPIKLQELQLVQYDASFQEKFAEVKQERKEILAERIHNTMGITIDPNSIFDVQVKRLHAYKRQLLNVLHILYLYNRLKEDASFTFYPRTFIFGAKASPGYYYAKKIIKLINELARKVNNDPYVSQYMKVIFLENYRVSLAEDIFPAADVSEQISTASKEASGTGNMKFMMNGAITLGTLDGANIEIKDRVGDDNCFIFGLTAEEVLHYYQNGGYRASDYYHHNGHIKKVVDQLTNGFFAQSGAEFEAIYDSLVIQNDEYFVLRDFGPYAERQEAVGRAYENRTKWLEMSILNIAQSGHFASDRTILQYSNEIWGIGNTVTQI,not soluble
